Measurements reported in patent US20070031832A1.

What follows are molecules tested against anti-Der p 1 monoclonal antibody 2C7 (assay: T7-DELFIA, 50 µl phage lysate on 2C7-coated wells, time resolved fluorometry).

TRF [TRF]	Molecule
64000	GDPNSSSVDKLGYWRVTESSNE (peptide, not shown: large carriers) [2c7pan42]
8500	GDPRTHR (peptide, not shown: large carriers) [2c7pan26]

Continued, molecule first:

Molecule	TRF [TRF]
GDPNSASGTA (peptide, not shown: large carriers) [2c7pan9]	17000
GDPNSSTSPR (peptide, not shown: large carriers) [2c7pan8]	1900
GDPNSRGKSREYLS (peptide, not shown: large carriers) [2c7pan14]	1800

The molecules below were run against anti-Der p 1 monoclonal antibody 2C7 (assay: T7-DELFIA, comparison phage on 2C7-coated wells, time resolved fluorometry).

TRF [TRF]	Molecule
500	T7wt
